# Experimental data as given in PMC5155689, “Pro-invasive Effect of Proto-oncogene PBF Is Modulated by an Interaction with Cortactin” (The Journal of Clinical Endocrinology and Metabolism, 2016).
# T1: Y174A PBF-HA (UniProt P53801 33-180, Y174A)
# T1 construct: also called PBF mutant Y174A; phospho-null PBF mutant (Y174A)
# T1 sequence (looked up): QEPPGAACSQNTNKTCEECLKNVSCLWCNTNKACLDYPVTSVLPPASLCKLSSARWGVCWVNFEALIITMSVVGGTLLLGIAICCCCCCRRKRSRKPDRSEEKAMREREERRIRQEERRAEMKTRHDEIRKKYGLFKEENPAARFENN
# B1: human Myc-CTTN (cortactin) (natural protein, UniProt Q14247 1-550, looked up)
# chain: MWKASAGHAVSIAQDDAGADDWETDPDFVNDVSEKEQRWGAKTVQGSGHQEHINIHKLRENVFQEHQTLKEKELETGPKASHGYGGKFGVEQDRMDKSAVGHEYQSKLSKHCSQVDSVRGFGGKFGVQMDRVDQSAVGFEYQGKTEKHASQKDYSSGFGGKYGVQADRVDKSAVGFDYQGKTEKHESQRDYSKGFGGKYGIDKDKVDKSAVGFEYQGKTEKHESQKDYVKGFGGKFGVQTDRQDKCALGWDHQEKLQLHESQKDYKTGFGGKFGVQSERQDSAAVGFDYKEKLAKHESQQDYSKGFGGKYGVQKDRMDKNASTFEDVTQVSSAYQKTVPVEAVTSKTSNIRANFENLAKEKEQEDRRKAEAERAQRMAKERQEQEEARRKLEEQARAKTQTPPVSPAPQPTEERLPSSPVYEDAASFKAELSYRGPVSGTEPEPVYSMEAADYREASSQQGLAYATEAVYESAEAPGHYPAEDSTYDEYENDLGITAVALYDYQAAGDDEISFDPDDIITNIEMIDDGWWRGVCKGRYGLFPANYVELRQ
# notes: cortactin (CTTN), human; Origene plasmid No. RC223259; the isoform of the clone follows from the catalogue number; also called myc-tagged CTTN; source: plasmid bought: Origene
# Biological target: T1, Y174A PBF-HA
# Experiment: co-IP; myc-tagged CTTN and HA-tagged PBF (WT or Y174A) transfected in MCF-7 and HeLa cells; in HeLa also after 50 nM dasatinib or vehicle
# Conditions: partners not purified
binder,measurement,value
B1,fold change of binding against WT PBF,> 2 fold
